Source: article PMC4140821, “Structural and Biochemical Characterization of the Cop9 Signalosome CSN5/CSN6 Heterodimer” (PLoS ONE, 2014)
Where a chain is given by its changes, count along the chain named. Names may count otherwise.

B1: CSN6^ΔC (human CSN6 31–211 fragment) (domain or fragment, UniProt Q7L5N1 31-211, looked up)
chain: MACGVTGSVSVALHPLVILNISDHWIRMRSQEGRPVQVIGALIGKQEGRNIEVMNSFELLSHTVEEKIIIDKEYYYTKEEQFKQVFKELEFLGWYTTGGPPDPSDIHVHKQVCEIIESPLFLKLNPMTKHTDLPVSVFESVIDIINGEATMLFAELTYTLATEEAERIGVDHVARMTATGS
notes: COP9 signalosome subunit 6 (CSN6), human, residues 31-211 (MPN domain with a C-terminal extension); Cloned in pGEX-6P1; Uniformly 15N-labelled for NMR; also called CSN6 N-terminal domain; CSN6 MPN domain; source: LB or 15NH4Cl M9 medium for NMR; not shown: GST, N-terminal, cleaved
B2: CSN6^ΔC,V115E (domain or fragment, human, UniProt Q7L5N1 31-211, looked up)
chain: B1 chain with V85E
notes: COP9 signalosome subunit 6 (CSN6), human, residues 31-211, V115E; everywhere else V115E; also called V115E variant; not shown: GST, N-terminal, cleaved

How the values were obtained:
[1] = target: the molecule itself; assay: crystal structure; CSN6^ΔC alone; crystals at 18°C in 0.2 M tri-sodium citrate, 0.1 M Bis-Tris propane pH 6.5, 20% PEG3350; dimer generated by the crystallographic 2-fold
[2] = target: T1, CSN5^ΔC,WT (human CSN5 1–257 fragment) (human, UniProt Q92905 1-257); assay: ITC; CSN6^ΔC (WT and variants; 1 mM, 30 injections of 1.8 µL) injected into CSN5^ΔC (WT and variants; 100 µM) in the cell; 20°C; 20 mM Na MES pH 6.5, 75 mM NaCl; one site model; apparent; conditions: both partners purified
T1 construct: COP9 signalosome subunit 5 (CSN5, Jab1), human, residues 1-257 (MPN domain with N- and C-terminal appendices); also called CSN5 catalytic domain; Jab1 fragment
T1 sequence (Q92905 1-257, stated change not applied): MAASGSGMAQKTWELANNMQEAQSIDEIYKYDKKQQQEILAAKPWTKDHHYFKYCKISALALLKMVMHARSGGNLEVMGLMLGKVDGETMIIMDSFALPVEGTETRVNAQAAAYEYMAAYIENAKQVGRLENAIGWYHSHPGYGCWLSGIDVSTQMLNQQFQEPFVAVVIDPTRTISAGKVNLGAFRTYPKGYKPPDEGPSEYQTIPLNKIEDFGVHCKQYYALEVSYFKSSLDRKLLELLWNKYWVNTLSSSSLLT

CSN5^ΔC,R106T = target: T2, CSN5^ΔC,R106T (human, UniProt Q92905 1-257, R106T); assay: as above; conditions: both partners purified
T2 construct: COP9 signalosome subunit 5 (CSN5, Jab1), human, residues 1-257, R106T in the Ins-1 region; also called conformationally-relaxed CSN5^ΔC variant; R106T variant
T2 sequence (Q92905 1-257 R106T): as the sequence (Q92905 1-257, stated change not applied) above, with R106T counted along it

Binder	binding result [1]	Kd [2] [µM]	binding result (CSN5^ΔC,R106T)	fold reduction in binding against WT CSN6^ΔC [2] [fold]
B1	binds	6 ± 1	binds	–
B2	–	–	–	5
